Test results: patent US20190367572A1

Molecular target: sonic hedgehog protein (SHH), endogenous in rat MPG/CN organ culture (rat) (UniProt Q63673)
Assay: cell-based or functional assay

Chain of sonic hedgehog protein (SHH), endogenous in rat MPG/CN organ culture (rat) (Q63673 25-198 limits assumed): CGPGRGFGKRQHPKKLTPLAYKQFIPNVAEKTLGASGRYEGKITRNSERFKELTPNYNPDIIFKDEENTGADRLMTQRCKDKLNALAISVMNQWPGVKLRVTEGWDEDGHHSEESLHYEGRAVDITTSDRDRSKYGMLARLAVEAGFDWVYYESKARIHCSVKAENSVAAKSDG

**Q.** What does the source list for 5E1 SHH inhibitor (antibody)?
**A.** neurite formation (growth cones per mm) in uninjured MPG/CN organ culture, three days: 86 % reduction; neurite formation (growth cones per mm) in uninjured MPG/CN organ culture, three days (fold reduction): 7.3
